Consider one molecule from patent US20180030119A1 (published 2018).

The target in test [1] is F protein of clinical RSV isolate #1, on virus. The test can be described thus: cell-based or functional assay.
In test [2] the target is T1, RSV F protein as coated in the ELISA of Example 3 (RSV-EIA antigen by the legend of FIG. 6) (RSV, strain ).
T1 construct: also called total RSV antigen (EIA-antigen)
The test can be described thus: ELISA, serial dilutions of purified AR201 on coated antigen, anti-human IgG-HRP, four parameter fit. (An ELISA detects its analyte on a solid surface through an enzyme-linked reagent.)

One may read the EC50 as the concentration giving half of the maximal effect.

B1: AR201 (antibody, V domains shown)
VH: LVQLRESGPGLVKPSQTLSLTCSVSGASINLYDYFWGWIRQAPGRGPEWIGYISGSTYYNPSLKRRATISVDTSKSQFFLELTSVTAADTAVYYCARDVGWGPQYYYGLDVWGQGTTVTVSS
VL: DLVLTQSPGTLSLSPGERATLSCRASHSVQSTSLAWYQQKRGQAPRLLIYGGSSRVTGIPDRFSGSGSGTDFTLTISRLEPEDFAVYYCQQSDRSPPITFGQGTRLEMK
notes: Fully human IgG1, kappa; 1 and 3 are used here; also called KBRV201
Take B1: the “IC50 of neutralisation, infectivity assay on Hep2 cells” value in test [1] worked out at 1700 nM. In addition, the EC50 in test [2] was 0.103 nM.
